For one substance, stoichiometry N (peptide per CaM) results are on record in publication PMC6856015.

This experiment has as its target Calmodulin (recombinant CaM) (UniProt P0DP23). The experiment in a line: cross-linking; photoaffinity labeling (PAL): 5 μM CaM and 5 μM Bpa-Mover(203-221), 10 mM HEPES pH 7.2, 150 mM KCl, 5 mM DTT, 2 h RT in the dark, with 100 μM Ca2+, UV irradiation; photoadducts read by SDS-PAGE and MALDI-TOF-MS.

For “Bpa-Mover(203-221), photoreactive variant of the rat Mover peptide 203-221 (from UniProt A8WCF8 203-221)”, the stoichiometry N (peptide per CaM) came to 1.
